This is an account of results in US20140140975A1.

One series has as its target recombinant human GRX1 (UniProt P35754).
Series [1] concerns the target Fas death receptor (mouse) (UniProt P25446). The series can be described thus: cell-based or functional assay.
Chain of UniProt P25446 (P25446 22-327): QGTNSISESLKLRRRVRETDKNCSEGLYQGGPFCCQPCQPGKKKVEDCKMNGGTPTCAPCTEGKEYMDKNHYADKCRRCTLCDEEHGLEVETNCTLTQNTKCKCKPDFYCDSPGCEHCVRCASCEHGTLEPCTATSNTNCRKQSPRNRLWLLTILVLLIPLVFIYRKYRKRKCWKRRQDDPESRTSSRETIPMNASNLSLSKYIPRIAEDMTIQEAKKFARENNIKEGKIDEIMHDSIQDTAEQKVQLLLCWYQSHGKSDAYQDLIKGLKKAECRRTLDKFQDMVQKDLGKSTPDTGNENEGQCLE

Chain of UniProt P35754 (P35754 whole entry): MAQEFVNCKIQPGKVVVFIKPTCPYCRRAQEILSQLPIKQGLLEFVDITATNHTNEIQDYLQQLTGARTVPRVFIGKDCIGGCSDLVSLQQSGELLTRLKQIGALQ

On to recombinant Caspase 3, for which, in the series with recombinant human GRX1, the “cleavage of GRX1 (Western Blotting)” value is listed as “Treatment of recombinant human GRX1 with recombinant Caspase 8 or 3 results in cleavage of GRX1”.
In turn, Fas Ligand gave a catalytic activity of GRX1 in lung epithelial cells in series [1] of 50 % decrease.
Turning to recombinant Caspase 8, the “cleavage of GRX1 (Western Blotting)” value with recombinant human GRX1 is given as “Treatment of recombinant human GRX1 with recombinant Caspase 8 or 3 results in cleavage of GRX1”.
